Assay results from publication PMC8298264, “Function of cofactor Akirin2 in the regulation of gene expression in model human neutrophil-like HL60 cells” (Bioscience Reports, 2021).

Tested on: human HL60 cells
Experiment: SWATH-MS proteomics, differential protein representation, akirin2 KO vs WT HL60 cells
Format: cell-based
Details: akirin2 KO vs WT HL60 cells, sheet "Under-represented in KO"
How it was run: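 First, proteins from wild-type and knockout cells are digested with trypsin by FASP. Next, pooled IDA runs generate a reference ion library. Then six samples of 5 µg each are acquired by data-independent SWATH, and protein areas are normalized to the summed area of all detected proteins.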

Molecule | Fold Change (SWATH-MS) | Log (Fold Change) (SWATH-MS) | Fold Change | Log (Fold Change)
sp¦P43490¦NAMPT_HUMAN (protein, UniProt P43490 1-491, looked up) Nicotinamide …: MNPAAEAEFNILLATDSYKVTHYKQYPPNTSKVYSYFECREKKTENSKLRKVKYEETVFYGLQYILNKYLKGKVVTKEKIQEAKDVYKEHFQDDVFNEKGWNYILEKYDGHLPIEIKAVPEGFVIPRGNVLFTVENTDPECYWLTNWIETILVQSWYPITVATNSREQKKILAKYLLETSGNLDGLEYKLHDFGYRGVSSQETAGIGASAHLVNFKGTDTVAGLALIKKYYGTKDPVPGYSVPAAEHSTITAWGKDHEKDAFEHIVTQFSSVPVSVVSDSYDIYNACEKIWGEDLRHLIVSRSTQAPLIIRPDSGNPLDTVLKVLEILGKKFPVTENSKGYKLLPPYLRVIQGDGVDINTLQEIVEGMKQKMWSIENIAFGSGGGLLQKLTRDLLNCSFKCSYVVTNGLGINVFKDPVADPNKRSKKGRLSLHRTPAGNFVTLEEGKGDLEEYGQDLLHTVFKNGKVTKSYSFDEIRKNAQLNIELEAAHH | 0.7897 | -0.1025 |  | 
sp¦Q9Y383¦LC7L2_HUMAN (protein, UniProt Q9Y383 1-392, looked up) Putative RNA-binding protein …: MSAQAQMRAMLDQLMGTSRDGDTTRQRIKFSDDRVCKSHLLNCCPHDVLSGTRMDLGECLKVHDLALRADYEIASKEQDFFFELDAMDHLQSFIADCDRRTEVAKKRLAETQEEISAEVAAKAERVHELNEEIGKLLAKVEQLGAEGNVEESQKVMDEVEKARAKKREAEEVYRNSMPASSFQQQKLRVCEVCSAYLGLHDNDRRLADHFGGKLHLGFIEIREKLEELKRVVAEKQEKRNQERLKRREEREREEREKLRRSRSHSKNPKRSRSREHRRHRSRSMSRERKRRTRSKSREKRHRHRSRSSSRSRSRSHQRSRHSSRDRSRERSKRRSSKERFRDQDLASCDRDRSSRDRSPRDRDRKDKKRSYESANGRSEDRRSSEEREAGEI |  |  | 0.3527 | -0.4526
sp¦Q15006¦EMC2_HUMAN (protein, UniProt Q15006 2-297, looked up) ER membrane protein complex …: AKVSELYDVTWEEMRDKMRKWREENSRNSEQIVEVGEELINEYASKLGDDIWIIYEQVMIAALDYGRDDLALFCLQELRRQFPGSHRVKRLTGMRFEAMERYDDAIQLYDRILQEDPTNTAARKRKIAIRKAQGKNVEAIRELNEYLEQFVGDQEAWHELAELYINEHDYAKAAFCLEELMMTNPHNHLYCQQYAEVKYTQGGLENLELSRKYFAQALKLNNRNMRALFGLYMSASHIASNPKASAKTKKDNMKYASWAASQINRAYQFAGRSKKETKYSLKAVEDMLETLQITQS | 0.7911 | -0.1017 |  | 
sp¦P50570¦DYN2_HUMAN (protein, UniProt P50570 1-870, looked up) Dynamin-2: MGNRGMEELIPLVNKLQDAFSSIGQSCHLDLPQIAVVGGQSAGKSSVLENFVGRDFLPRGSGIVTRRPLILQLIFSKTEHAEFLHCKSKKFTDFDEVRQEIEAETDRVTGTNKGISPVPINLRVYSPHVLNLTLIDLPGITKVPVGDQPPDIEYQIKDMILQFISRESSLILAVTPANMDLANSDALKLAKEVDPQGLRTIGVITKLDLMDEGTDARDVLENKLLPLRRGYIGVVNRSQKDIEGKKDIRAALAAERKFFLSHPAYRHMADRMGTPHLQKTLNQQLTNHIRESLPALRSKLQSQLLSLEKEVEEYKNFRPDDPTRKTKALLQMVQQFGVDFEKRIEGSGDQVDTLELSGGARINRIFHERFPFELVKMEFDEKDLRREISYAIKNIHGVRTGLFTPDLAFEAIVKKQVVKLKEPCLKCVDLVIQELINTVRQCTSKLSSYPRLREETERIVTTYIREREGRTKDQILLLIDIEQSYINTNHEDFIGFANAQQRSTQLNKKRAIPNQGEILVIRRGWLTINNISLMKGGSKEYWFVLTAESLSWYKDEEEKEKKYMLPLDNLKIRDVEKGFMSNKHVFAIFNTEQRNVYKDLRQIELACDSQEDVDSWKASFLRAGVYPEKDQAENEDGAQENTFSMDPQLERQVETIRNLVDSYVAIINKSIRDLMPKTIMHLMINNTKAFIHHELLAYLYSSADQSSLMEESADQAQRRDDMLRMYHALKEALNIIGDISTSTVSTPVPPPVDDTWLQSASSHSPTPQRRPVSSIHPPGRPPAVRGPTPGPPLIPVPVGAAASFSAPPIPSRPGPQSVFANSDLFPAPPQIPSRPVRIPPGIPPGVPSRRPPAAPSRPTIIRPAEPSLLD | 0.7916 | -0.1015 |  | 
sp¦Q70J99¦UN13D_HUMAN (protein, UniProt Q70J99 1-1090, looked up) Protein unc-13 homolog D: MATLLSHPQQRPPFLRQAIKIRRRRVRDLQDPPPQMAPEIQPPSHHFSPEQRALLYEDALYTVLHRLGHPEPNHVTEASELLRYLQEAFHVEPEEHQQTLQRVRELEKPIFCLKATVKQAKGILGKDVSGFSDPYCLLGIEQGVGVPGGSPGSRHRQKAVVRHTIPEEETHRTQVITQTLNPVWDETFILEFEDITNASFHLDMWDLDTVESVRQKLGELTDLHGLRRIFKEARKDKGQDDFLGNVVLRLQDLRCREDQWYPLEPRTETYPDRGQCHLQFQLIHKRRATSASRSQPSYTVHLHLLQQLVSHEVTQHEAGSTSWDGSLSPQAATVLFLHATQKDLSDFHQSMAQWLAYSRLYQSLEFPSSCLLHPITSIEYQWIQGRLKAEQQEELAASFSSLLTYGLSLIRRFRSVFPLSVSDSPARLQSLLRVLVQMCKMKAFGELCPNTAPLPQLVTEALQTGTTEWFHLKQQHHQPMVQGIPEAGKALLGLVQDVIGDLHQCQRTWDKIFHNTLKIHLFSMAFRELQWLVAKRVQDHTTVVGDVVSPEMGESLFQLYISLKELCQLRMSSSERDGVLALDNFHRWFQPAIPSWLQKTYNEALARVQRAVQMDELVPLGELTKHSTSAVDLSTCFAQISHTARQLDWPDPEEAFMITVKFVEDTCRLALVYCSLIKARARELSSGQKDQGQAANMLCVVVNDMEQLRLVIGKLPAQLAWEALEQRVGAVLEQGQLQNTLHAQLQSALAGLGHEIRTGVRTLAEQLEVGIAKHIQKLVGVRESVLPEDAILPLMKFLEVELCYMNTNLVQENFSSLLTLLWTHTLTVLVEAAASQRSSSLASNRLKIALQNLEICFHAEGCGLPPKALHTATFQALQRDLELQAASSRELIRKYFCSRIQQQAETTSEELGAVTVKASYRASEQKLRVELLSASSLLPLDSNGSSDPFVQLTLEPRHEFPELAARETQKHKKDLHPLFDETFEFLVPAEPCRKAGACLLLTVLDYDTLGADDLEGEAFLPLREVPGLSGSEEPGEVPQTRLPLTYPAPNGDPILQLLEGRKGDREAQVFVRLRRHRAKQASQHALRPAP | 0.785 | -0.1051 |  | 
sp¦Q9BTE7¦DCNL5_HUMAN (protein, UniProt Q9BTE7 1-237, looked up) DCN1-like protein 5: MPVKKKRKSPGVAAAVAEDGGLKKCKISSYCRSQPPARLISGEEHFSSKKCLAWFYEYAGPDEVVGPEGMEKFCEDIGVEPENIIMLVLAWKLEAESMGFFTKEEWLKGMTSLQCDCTEKLQNKFDFLRSQLNDISSFKNIYRYAFDFARDKDQRSLDIDTAKSMLALLLGRTWPLFSVFYQYLEQSKYRVMNKDQWYNVLEFSRTVHADLSNYDEDGAWPVLLDEFVEWQKVRQTS | 0.7927 | -0.1009 |  | 
sp¦Q96E11¦RRFM_HUMAN (protein, UniProt Q96E11 56-262, looked up) Ribosome-recycling factor, …: ATKKAKAKGKGQSQTRVNINAALVEDIINLEEVNEEMKSVIEALKDNFNKTLNIRTSPGSLDKIAVVTADGKLALNQISQISMKSPQLILVNMASFPECTAAAIKAIRESGMNLNPEVEGTLIRVPIPQVTREHREMLVKLAKQNTNKAKDSLRKVRTNSMNKLKKSKDTVSEDTIRLIEKQISQMADDTVAELDRHLAVKTKELLG | 0.7929 | -0.1008 |  | 
sp¦O94874¦UFL1_HUMAN (protein, UniProt O94874 2-794, looked up) E3 UFM1-protein ligase 1: ADAWEEIRRLAADFQRAQFAEATQRLSERNCIEIVNKLIAQKQLEVVHTLDGKEYITPAQISKEMRDELHVRGGRVNIVDLQQVINVDLIHIENRIGDIIKSEKHVQLVLGQLIDENYLDRLAEEVNDKLQESGQVTISELCKTYDLPGNFLTQALTQRLGRIISGHIDLDNRGVIFTEAFVARHKARIRGLFSAITRPTAVNSLISKYGFQEQLLYSVLEELVNSGRLRGTVVGGRQDKAVFVPDIYSRTQSTWVDSFFRQNGYLEFDALSRLGIPDAVSYIKKRYKTTQLLFLKAACVGQGLVDQVEASVEEAISSGTWVDIAPLLPTSLSVEDAAILLQQVMRAFSKQASTVVFSDTVVVSEKFINDCTELFRELMHQKAEKEMKNNPVHLITEEDLKQISTLESVSTSKKDKKDERRRKATEGSGSMRGGGGGNAREYKIKKVKKKGRKDDDSDDESQSSHTGKKKPEISFMFQDEIEDFLRKHIQDAPEEFISELAEYLIKPLNKTYLEVVRSVFMSSTTSASGTGRKRTIKDLQEEVSNLYNNIRLFEKGMKFFADDTQAALTKHLLKSVCTDITNLIFNFLASDLMMAVDDPAAITSEIRKKILSKLSEETKVALTKLHNSLNEKSIEDFISCLDSAAEACDIMVKRGDKKRERQILFQHRQALAEQLKVTEDPALILHLTSVLLFQFSTHSMLHAPGRCVPQIIAFLNSKIPEDQHALLVKYQGLVVKQLVSQSKKTGQGDYPLNNELDKEQEDVASTTRKELQELSSSIKDLVLKSRKSSVTEE | 0.7911 | -0.1018 |  | 
sp¦Q9BVI4¦NOC4L_HUMAN (protein, UniProt Q9BVI4 1-516, looked up) Nucleolar complex protein 4 …: MEREPGAAGVRRALGRRLEAVLASRSEANAVFDILAVLQSEDQEEIQEAVRTCSRLFGALLERGELFVGQLPSEEMVMTGSQGATRKYKVWMRHRYHSCCNRLGELLGHPSFQVKELALSALLKFVQLEGAHPLEKSKWEGNYLFPRELFKLVVGGLLSPEEDQSLLLSQFREYLDYDDTRYHTMQAAVDAVARVTGQHPEVPPAFWNNAFTLLSAVSLPRREPTVSSFYVKRAELWDTWKVAHLKEHRRVFQAMWLSFLKHKLPLSLYKKVLLIVHDAILPQLAQPTLMIDFLTRACDLGGALSLLALNGLFILIHKHNLEYPDFYRKLYGLLDPSVFHVKYRARFFHLADLFLSSSHLPAYLVAAFAKRLARLALTAPPEALLMVLPFICNLLRRHPACRVLVHRPHGPELDADPYDPGEEDPAQSRALESSLWELQALQRHYHPEVSKAASVINQALSMPEVSIAPLLELTAYEIFERDLKKKGPEPVPLEFIPAQGLLGRPGELCAQHFTLS |  |  | 0.3572 | -0.4471
sp¦Q86W42¦THOC6_HUMAN (protein, UniProt Q86W42 1-341, looked up) THO complex subunit 6: MERAVPLAVPLGQTEVFQALQRLHMTIFSQSVSPCGKFLAAGNNYGQIAIFSLSSALSSEAKEESKKPVVTFQAHDGPVYSMVSTDRHLLSAGDGEVKAWLWAEMLKKGCKELWRRQPPYRTSLEVPEINALLLVPKENSLILAGGDCQLHTMDLETGTFTRVLRGHTDYIHCLALRERSPEVLSGGEDGAVRLWDLRTAKEVQTIEVYKHEECSRPHNGRWIGCLATDSDWMVCGGGPALTLWHLRSSTPTTIFPIRAPQKHVTFYQDLILSAGQGRCVNQWQLSGELKAQVPGSSPGLLSLSLNQQPAAPECKVLTAAGNSCRVDVFTNLGYRAFSLSF | 0.7851 | -0.1051 |  | 
